Assay results reported in paper PMC5588548 (2017).
Values belong to the binder of their own block, whether it stands above or below them.

Columns and labels:
Test in all cases: inhibition of fluorescent peptide substrate cleavage, tight binding equation
[1] = molecular target: T1, ADAMTS-5 lacking the C-terminal thrombospondin domain (Homo sapiens, UniProt Q9UNA0)
T1 chain: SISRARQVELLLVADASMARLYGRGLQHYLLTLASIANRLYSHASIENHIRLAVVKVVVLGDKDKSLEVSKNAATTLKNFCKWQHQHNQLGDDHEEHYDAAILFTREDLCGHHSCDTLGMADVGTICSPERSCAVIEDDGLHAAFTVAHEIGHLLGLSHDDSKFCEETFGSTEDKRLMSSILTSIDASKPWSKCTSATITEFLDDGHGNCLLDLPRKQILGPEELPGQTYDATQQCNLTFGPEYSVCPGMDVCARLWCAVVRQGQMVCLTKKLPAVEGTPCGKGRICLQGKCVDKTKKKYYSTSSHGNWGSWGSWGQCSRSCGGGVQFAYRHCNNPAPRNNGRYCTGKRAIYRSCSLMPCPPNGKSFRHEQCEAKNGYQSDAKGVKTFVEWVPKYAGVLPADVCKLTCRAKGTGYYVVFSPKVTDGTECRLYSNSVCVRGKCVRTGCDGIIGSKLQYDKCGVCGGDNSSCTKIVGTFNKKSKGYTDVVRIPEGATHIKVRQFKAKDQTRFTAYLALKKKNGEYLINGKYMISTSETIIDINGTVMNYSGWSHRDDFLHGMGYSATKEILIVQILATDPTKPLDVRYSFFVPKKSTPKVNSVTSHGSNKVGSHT

MMP-1 catalytic domain = molecular target: T2, MMP-1 catalytic domain (Homo sapiens, UniProt P03956)
T2 chain: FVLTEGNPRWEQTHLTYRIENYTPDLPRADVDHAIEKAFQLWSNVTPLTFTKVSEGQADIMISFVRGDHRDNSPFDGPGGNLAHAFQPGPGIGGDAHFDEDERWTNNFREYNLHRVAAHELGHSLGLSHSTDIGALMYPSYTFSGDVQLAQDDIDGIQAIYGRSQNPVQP

MMP-3 catalytic domain = MMP-3 catalytic domain (Homo sapiens, UniProt P08254)
Chain of MMP-3 catalytic domain (P08254 100-272): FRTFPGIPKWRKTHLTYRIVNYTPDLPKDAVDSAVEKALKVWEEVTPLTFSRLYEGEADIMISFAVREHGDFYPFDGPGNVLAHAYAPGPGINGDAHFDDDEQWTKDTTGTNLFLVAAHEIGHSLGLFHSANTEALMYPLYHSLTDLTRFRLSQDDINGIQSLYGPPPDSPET

- Ki [1]: 1.6 nM
- Ki (MMP-1 catalytic domain): 0.65 nM
- Ki (MMP-3 catalytic domain): 0.76 nM
B1: TIMP-3 (protein)
chain: CTCSPSHPQDAFCNSDIVIRAKVVGKKLVKEGPFGTLVYTIKQMKMYRGFTKMPHVQYIHTEASESLCGLKLEVNKYQYLLTGRVYDGKMYTGLCNFVERWDQLTLSQRKGLNYRYHLGCNCKIKSCYYLPCFVTSKNECLWTDMLSNFGYPGYQSKHYACIRQKGGYCSWYRGWAPPDKSIINATDP
modifications: suramin (0.05 µg/ml)

- Ki [1]: 2.03 nM
- Ki (MMP-1 catalytic domain): 0.66 nM
- Ki (MMP-3 catalytic domain): 1.14 nM
B2: TIMP-3 (protein)
chain: B1 chain
